Among the data in ChEMBL document CHEMBL1687818, “Mechanistic studies of the inactivation of TEM-1 and P99 by NXL104, a novel non-beta-lactam beta-lactamase inhibitor” (Antimicrob Agents Chemother, 2010) are Km values, retold here.

Substrate in the series: C[C@]1(Cn2ccnn2)[C@H](C(=O)O)N2C(=O)C[C@H]2S1(=O)=O
The note with it: Enterobacter cloacae.

Description: Activity of Enterobacter cloacae beta-lactamase P99 by spectrophotometry

B1: Beta-lactamase (Enterobacter cloacae), P05364 (protein)
chain: MMRKSLCCALLLGISCSALATPVSEKQLAEVVANTITPLMKAQSVPGMAVAVIYQGKPHYYTFGKADIAANKPVTPQTLFELGSISKTFTGVLGGDAIARGEISLDDAVTRYWPQLTGKQWQGIRMLDLATYTAGGLPLQVPDEVTDNASLLRFYQNWQPQWKPGTTRLYANASIGLFGALAVKPSGMPYEQAMTTRVLKPLKLDHTWINVPKAEEAHYAWGYRDGKAVRVSPGMLDAQAYGVKTNVQDMANWVMANMAPENVADASLKQGIALAQSRYWRIGSMYQGLGWEMLNWPVEANTVVEGSDSKVALAPLPVAEVNPPAPPVKASWVHKTGSTGGFGSYVAFIPEKQIGIVMLANTSYPNPARVEAAYHILEALQ
Broadly, the Km is the concentration of substrate that gives half-maximal velocity. On to B1, for which the Km amounted to 300 µM.
